This note sets out measurements from paper PMC7781312 (bioRxiv, 2021).

The target in the assay is prefusion-stabilized SARS-CoV S ectodomain trimer (SARS-CoV 2P S) (SARS-CoV Urbani (AAP13441), UniProt P59594, stabilised). The assay is described as follows: BLI. For orientation: In BLI a coated tip is dipped into the sample, and binding shifts an interference pattern.

B1: B6 monoclonal antibody (recombinant IgG with human constant regions) (antibody, V domains shown)
VH: EVQLQQSGPVLVKPGASVRMSCKASGYTITDYYLNWVKQSHGKSLEWLGVLNPYSGGSLYSQTFKGKATLTVDRSSSTAYLELNSLTSEDSAVYYCARQLGRGNGLDYWGQGTSVTVSS
VL: NIMMTQSPSSLAVSAGEKVTMSCKSSQSVLHSSDQKNYLAWYQQKPGQSPKLLIYWASTRESGVPDRFTGSGSGTDFTLTISSVQAEDLAVYFCHQYLSSYTFGGGTKLEIK
Turning to B1, the binding result was “binds”.
